Values of other authors as cited in publication PMC9971567.

Molecular target: Intimin C terminus (Escherichia coli) (UniProt P19809)
Sequence of UniProt P19809 (P19809 660-939): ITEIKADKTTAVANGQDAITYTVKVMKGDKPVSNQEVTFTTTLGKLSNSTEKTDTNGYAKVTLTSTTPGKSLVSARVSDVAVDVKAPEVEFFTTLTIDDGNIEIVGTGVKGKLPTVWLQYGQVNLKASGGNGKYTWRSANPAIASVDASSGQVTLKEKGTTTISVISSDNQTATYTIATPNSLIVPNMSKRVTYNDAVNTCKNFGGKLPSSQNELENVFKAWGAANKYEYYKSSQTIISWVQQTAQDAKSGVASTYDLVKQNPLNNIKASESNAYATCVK

Substance: Tir central loop (from UniProt B7UM99)
- Kd: 0.01 µM
